For this assay, the target named is FLS2 receptor (in corn tissue) (corn (taken from the assay tissue; …). The assay is described as follows: cell-based or functional assay.

For QRLSSGKRINSASDDAAGLAIA [Bt.Flg22-Syn03, Mutant D1Q (SEQ ID NO: 573)], the “Avg. Activity (%), ROS activity in corn (5828 YX) at 5 nM polypeptide, relative to Bt.4Q7Flg22” value amounted to 122%.

The values above are taken from patent publication US20190023750A1 (SPOGEN BIOTECH, published 2019).
